Publication PMC8230527, “Structural and Biochemical Characterization of a Dye-Decolorizing Peroxidase from Dictyostelium discoideum” (International Journal of Molecular Sciences, 2021)

Assays:
[1] = biological target: Dictyostelium discoideum dye-decolorizing peroxidase DyPA (Dictyostelium discoideum); test: AUC; sedimentation velocity, 50,000 rpm, 20 °C, 50 mM Tris-HCl pH 8.0, 150 mM NaCl; heme-reconstituted DyPA at 2.1, 6.3, 18.9 and 33.6 µM (monomer concentrations); dimer, no monomer-dimer equilibrium seen in this range
[2] = biological target: Dictyostelium discoideum dye-decolorizing peroxidase DyPA (Dictyostelium discoideum); test: AUC; sedimentation velocity, 50,000 rpm, 20 °C, 50 mM Tris-HCl pH 8.0, 150 mM NaCl; 20 µM apo-DyPA with a heme saturation of only 7%

Question: For “Dictyostelium discoideum dye-decolorizing peroxidase DyPA (enzyme)”, which percent of the protein sedimenting as the dimer species [1] is on record?
Answer: 90%

Question: And the stoichiometry N [1]?
Answer: 2

Question: And the stoichiometry N [2]?
Answer: 2
